Experimental data: paper PMC9184524, “Structural Basis for pH-gating of the K^+ channel TWIK1 at the selectivity filter” (Nature Communications, 2022)

Target: the molecule itself
Assay: cryo-EM structure; TWIK1 in MSP1D1 nanodiscs (2:1:1 DOPE:POPS:POPC), 20 mM HEPES pH 7.4, 150 mM KCl, 1 mM EDTA; C2 symmetry imposed; homodimer

B1: Rattus norvegicus TWIK1 (natural protein)
chain: MLQSLAGSSCVRLVERHRSAWCFGFLVLGYLLYLVFGAVVFSSVELPYEDLLRQELRKLKRRFLEEHECLSEPQLEQFLGRVLEASNYGVSVLSNASGNWNWDFTSALFFASTVLSTTGYGHTVPLSDGGKAFCIIYSVIGIPFTLLFLTAVVQRVTVHVTRRPVLYFHIRWGFSKQVVAIVHAVLLGFVTVSCFFFIPAAVFSVLEDDWNFLESFYFCFISLSTIGLGDYVPGEGYNQKFRELYKIGITCYLLLGLIAMLVVLETFCELHELKKFRKMFYVKKDKDEDQVHIMEHDQLSFSSITEQAAGLKEEQKQNEPFVASQSPPYEDGSANHSNSLEVLFQ
notes: TWIK1 (K2P1.1, KCNK1), Rattus norvegicus, Uniprot Q9Z2T2, full length; gene codon-optimized for Pichia pastoris; W20-Y281 modeled at pH 5.5, G24-F280 at pH 7.4; linker SNS and the part of the human rhinovirus 3C site (LEVLFQ/GP) left on the C-terminus after cleavage of EGFP-His10; cleaved on the resin with PPX before SEC and nanodisc reconstitution (MSP1D1 at pH 7.4, MSPE3D1 at pH 5.5); also …
stoichiometry N: 2
